# Patent publication US20100255012A1
# What was measured:
# Test in all cases: non-covalent nano-electrospray mass spectrometry at 0.01-10 µM, value at low concentrations; self-association
# 2F8-HG CH3 mutant F273A = molecular target: 2F8-HG CH3 mutant F273A
# 2F8-HG-L236V = molecular target: 2F8-HG-L236V
# 2F8-HG-Y275A = molecular target: 2F8-HG-Y275A
substance,measurement,setting,value
2F8-HG CH3 mutant F273A (antibody),percentage molecules present as monomers,2F8-HG CH3 mutant F273A,100%
2F8-HG-L236V (antibody),percentage molecules present as monomers,2F8-HG-L236V,100%
2F8-HG-Y275A (antibody),percentage molecules present as monomers,2F8-HG-Y275A,100%
